Kd and KD-WT/KD-mut data for 5 molecules are collected here from patent US20210238260A1 (published 2021).

The target in assay [1] is T1, Factor VIIIa (FVIIIa), from recombinant FVIII (Kogenate FS; Bayer healthcare) activated with alpha-thrombin (UniProt P00451 20-2351).
T1 sequence (looked up): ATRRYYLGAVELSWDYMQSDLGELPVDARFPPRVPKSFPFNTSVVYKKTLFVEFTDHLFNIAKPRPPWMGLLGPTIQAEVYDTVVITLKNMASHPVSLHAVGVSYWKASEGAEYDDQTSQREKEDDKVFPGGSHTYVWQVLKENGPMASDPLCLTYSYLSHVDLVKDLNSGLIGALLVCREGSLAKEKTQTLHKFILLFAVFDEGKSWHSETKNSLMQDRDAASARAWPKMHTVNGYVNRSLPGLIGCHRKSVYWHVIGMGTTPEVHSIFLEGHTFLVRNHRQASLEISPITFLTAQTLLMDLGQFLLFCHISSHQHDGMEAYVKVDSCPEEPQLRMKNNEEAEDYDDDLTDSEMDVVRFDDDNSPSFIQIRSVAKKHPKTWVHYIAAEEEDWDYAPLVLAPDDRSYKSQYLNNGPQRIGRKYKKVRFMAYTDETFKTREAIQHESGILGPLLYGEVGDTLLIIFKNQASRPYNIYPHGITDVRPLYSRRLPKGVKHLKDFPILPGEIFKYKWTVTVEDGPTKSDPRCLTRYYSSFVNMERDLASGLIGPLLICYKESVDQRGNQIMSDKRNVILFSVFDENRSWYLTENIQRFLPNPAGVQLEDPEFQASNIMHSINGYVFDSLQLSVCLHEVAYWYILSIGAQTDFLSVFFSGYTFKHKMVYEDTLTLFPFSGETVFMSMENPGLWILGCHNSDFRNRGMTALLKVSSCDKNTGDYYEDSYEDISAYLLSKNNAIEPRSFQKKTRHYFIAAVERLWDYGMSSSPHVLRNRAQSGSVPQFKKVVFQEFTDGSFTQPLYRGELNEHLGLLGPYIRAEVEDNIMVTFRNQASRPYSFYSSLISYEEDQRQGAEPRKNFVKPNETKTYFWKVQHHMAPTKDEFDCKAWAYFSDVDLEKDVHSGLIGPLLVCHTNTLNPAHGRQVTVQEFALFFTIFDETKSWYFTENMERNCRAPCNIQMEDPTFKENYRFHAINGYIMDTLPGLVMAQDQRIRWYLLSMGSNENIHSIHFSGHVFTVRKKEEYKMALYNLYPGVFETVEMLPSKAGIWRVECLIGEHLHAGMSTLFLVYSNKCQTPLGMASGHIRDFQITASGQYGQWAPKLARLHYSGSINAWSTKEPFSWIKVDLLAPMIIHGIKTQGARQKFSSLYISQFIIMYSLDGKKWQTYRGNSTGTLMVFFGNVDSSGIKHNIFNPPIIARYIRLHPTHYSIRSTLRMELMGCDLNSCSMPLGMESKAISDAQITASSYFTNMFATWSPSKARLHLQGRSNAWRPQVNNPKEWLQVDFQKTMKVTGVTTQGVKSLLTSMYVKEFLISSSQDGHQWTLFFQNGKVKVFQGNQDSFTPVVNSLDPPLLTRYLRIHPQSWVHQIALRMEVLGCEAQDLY
Description: apparent functional KD (KD-app): FX activation rate vs FVIIIa titration, fluorogenic Xase assay with PC/PS vesicles and Ca2+.
Description: (§1) The activity of alpha-thrombin was then quenched by the addition of a highly specific thrombin inhibitor, hirudin, prior to initiating the assay.

Assay [2] addresses T1, Factor VIIIa (FVIIIa), from recombinant …. Description: ratio of KD-app of Catalyst Biosciences WT FIXa to KD-app of the variant, same Xase assay.
Description: as §1

B1: FIXa variant R318Y/R338E/N346D/R403E/E410N (enzyme)
light: YNSGKLEEFVQGNLERECMEEKCSFEEAREVFENTERTTEFWKQYVDGDQCESNPCLNGGSCKDDINSYECWCPFGFEGKNCELDVTCNIKNGRCEQFCKNSADNKVVCSCTEGYRLAENQKSCEPAVPFPCGRVSVSQTSKLTR
heavy: VVGGEDAKPGQFPWQVVLNGKVDAFCGGSIVNEKWIVTAAHCVETGVKITVVAGEHNIEETEHTEQKRNVIRIIPHHNYNAAINKYNHDIALLELDEPLVLNSYVTPICIADKEYTNIFLKFGSGYVSGWGRVFHKGYSALVLQYLRVPLVDRATCLESTKFTIYDNMFCAGFHEGGRDSCQGDSGGPHVTEVEGTSFLTGIISWGEECAMKGKYGIYTKVSEYVNWIKNKTKLT
notes: also called R150Y/R170E/N178D/R233E/E240N
B1: the Kd in assay [1] worked out at 0.11 µM. Moreover, the KD-WT/KD-mut in assay [2] was found to be 0.9 fold.

B2: FIXa variant R318Y/R338E/R403E/E410S (enzyme)
light: YNSGKLEEFVQGNLERECMEEKCSFEEAREVFENTERTTEFWKQYVDGDQCESNPCLNGGSCKDDINSYECWCPFGFEGKNCELDVTCNIKNGRCEQFCKNSADNKVVCSCTEGYRLAENQKSCEPAVPFPCGRVSVSQTSKLTR
heavy: VVGGEDAKPGQFPWQVVLNGKVDAFCGGSIVNEKWIVTAAHCVETGVKITVVAGEHNIEETEHTEQKRNVIRIIPHHNYNAAINKYNHDIALLELDEPLVLNSYVTPICIADKEYTNIFLKFGSGYVSGWGRVFHKGYSALVLQYLRVPLVDRATCLESTKFTIYNNMFCAGFHEGGRDSCQGDSGGPHVTEVEGTSFLTGIISWGEECAMKGKYGIYTKVSEYVNWIKSKTKLT
notes: also called R150Y/R170E/R233E/E240S
As to B2, the Kd in assay [1] is 0.0531 µM. For the same molecule, the KD-WT/KD-mut in assay [2] came out at 1.8 fold.

B3: FIXa variant R318Y/R338E/N346Y/R403E/E410N (enzyme)
light: YNSGKLEEFVQGNLERECMEEKCSFEEAREVFENTERTTEFWKQYVDGDQCESNPCLNGGSCKDDINSYECWCPFGFEGKNCELDVTCNIKNGRCEQFCKNSADNKVVCSCTEGYRLAENQKSCEPAVPFPCGRVSVSQTSKLTR
heavy: VVGGEDAKPGQFPWQVVLNGKVDAFCGGSIVNEKWIVTAAHCVETGVKITVVAGEHNIEETEHTEQKRNVIRIIPHHNYNAAINKYNHDIALLELDEPLVLNSYVTPICIADKEYTNIFLKFGSGYVSGWGRVFHKGYSALVLQYLRVPLVDRATCLESTKFTIYYNMFCAGFHEGGRDSCQGDSGGPHVTEVEGTSFLTGIISWGEECAMKGKYGIYTKVSEYVNWIKNKTKLT
notes: also called R150Y/R170E/N178Y/R233E/E240N
As to B3, the Kd in assay [1] is 0.0396 µM. Besides, the KD-WT/KD-mut in assay [2] was 2.4 fold.

B4: FIXa variant R318Y/R338E/R403E/E410N/T412V (enzyme)
light: YNSGKLEEFVQGNLERECMEEKCSFEEAREVFENTERTTEFWKQYVDGDQCESNPCLNGGSCKDDINSYECWCPFGFEGKNCELDVTCNIKNGRCEQFCKNSADNKVVCSCTEGYRLAENQKSCEPAVPFPCGRVSVSQTSKLTR
heavy: VVGGEDAKPGQFPWQVVLNGKVDAFCGGSIVNEKWIVTAAHCVETGVKITVVAGEHNIEETEHTEQKRNVIRIIPHHNYNAAINKYNHDIALLELDEPLVLNSYVTPICIADKEYTNIFLKFGSGYVSGWGRVFHKGYSALVLQYLRVPLVDRATCLESTKFTIYNNMFCAGFHEGGRDSCQGDSGGPHVTEVEGTSFLTGIISWGEECAMKGKYGIYTKVSEYVNWIKNKVKLT
notes: also called R150Y/R170E/R233E/E240N/T242V
For the molecule B4, the Kd in assay [1] was found to be 0.055 µM. In assay [2], the KD-WT/KD-mut was 1.7 fold.

B5: FIXa variant R318Y/R338E/T343R/N346D/R403E/E410N (enzyme)
light: YNSGKLEEFVQGNLERECMEEKCSFEEAREVFENTERTTEFWKQYVDGDQCESNPCLNGGSCKDDINSYECWCPFGFEGKNCELDVTCNIKNGRCEQFCKNSADNKVVCSCTEGYRLAENQKSCEPAVPFPCGRVSVSQTSKLTR
heavy: VVGGEDAKPGQFPWQVVLNGKVDAFCGGSIVNEKWIVTAAHCVETGVKITVVAGEHNIEETEHTEQKRNVIRIIPHHNYNAAINKYNHDIALLELDEPLVLNSYVTPICIADKEYTNIFLKFGSGYVSGWGRVFHKGYSALVLQYLRVPLVDRATCLESTKFRIYDNMFCAGFHEGGRDSCQGDSGGPHVTEVEGTSFLTGIISWGEECAMKGKYGIYTKVSEYVNWIKNKTKLT
notes: also called R150Y/R170E/T175R/N178D/R233E/E240N
B5: in assay [1], the Kd came to 0.0762 µM. Moreover, the KD-WT/KD-mut in assay [2] amounted to 1.3 fold.
